Where two headings read alike, the source gives them in different places.

Experiment [1] concerns the target T1, human CXCR4 (human, UniProt P61073 1-352). The experiment can be described thus: cell-based or functional assay.
The target of experiment [2] is T1, human CXCR4. The experiment in a line: FACS, hybridoma supernatant pre-incubated with human CXCR4 transfected HEK293T cells, competitor Alexa-647 SDF-1.
The target of experiment [3] is T2, cynomolgus monkey CXCR4 (cynomolgus monkey, UniProt Q28474 1-352).
T2 construct: whole, on cells; On transiently transfected HEK293T cells or endogenous on the cynomolgus T-cell line HSC-F; also called Cynomolgus CXCR4
The experiment in a line: FMAT, hybridoma supernatant on HEK293T cells transiently overexpressing full-length cynomolgus CXCR4. As to the method:
(§1) Supernatants collected from harvested cells were tested to assess the ability of the secreted antibodies to bind to HEK293T cells transiently overexpressing either full-length human, murine or cynomolgus monkey CXCR4. […] Cells diluted in PBS containing 2% FBS were seeded at a density of 3000 expressing and 15000 mock transfected cells per well in 384 well plates (Corning Costar, catalog #3712). Immediately after plating, 15 or 20 μl/well of hybridoma supernatants and 10 μl/well of secondary antibody (Goat anti-human IgG Fc Cy5, final concentration 750 ng/ml) were added and plates incubated for 3 hours at room temperature prior to reading the fluorescence on the FMAT 8200 instrument (Applied Biosystems). The product of number of positive events and fluorescence intensity was used as a measure of binding strength.

Experiment [4] addresses T1, human CXCR4. The experiment can be described thus: FMAT, hybridoma supernatant on HEK293T cells transiently overexpressing full-length human CXCR4. Here is the method:
as §1

In experiment [5] the target is T3, mouse CXCR4 (mouse, UniProt P70658 1-359).
T3 construct: Full-length murine CXCR4 on transiently transfected HEK293T cells; also native on mouse lymphocytes and the EL4 line; also called murine CXCR4
The experiment in a line: FMAT, hybridoma supernatant on HEK293T cells transiently overexpressing full-length mouse CXCR4. Here is the method:
as §1

Experiment [6] has as its target T1, human CXCR4. The experiment can be described thus: cell-based or functional assay. The source holds these as a separate data set.
Experiment [7] deals with T3, mouse CXCR4. The experiment can be described thus: FMAT, hybridoma supernatant on HEK293T cells transiently overexpressing mouse CXCR4. Here is the method: as §1
Experiment [8] concerns the target T1, human CXCR4. The experiment can be described thus: FACS binding under antigen limiting conditions on Jurkat cells, Kinexa software fit; experiment 1. Here is the method: (§2) FACS binding under antigen limiting conditions was utilized to estimate the affinities of antibodies to the CXCR4 receptor. Jurkat cells were washed in RPMI1640 medium and plated at 50,000 cells per well in duplicate for incubation with 4-fold dilution series of antibody in duplicate, ranging between 150,000 and 0.143 pM. Incubation was carried out at 4° C. overnight, followed by wash step (3 times in PBS) and staining with Goat anti-human Fc−Cy5 secondary antibody+5 μg/mL 7-Amino-Actinomycin (7AAD) for 40 minutes at 4° C. Samples were analyzed on a FACSCaliber following another round of 3 washes in PBS. […] The negative geo mean was entered into Kinexa analysis software as an estimate of antibody “depletion” under limited antigen conditions, and the equilibrium dissociation constant (KD) was estimated from the curve fit.
Background: A flow cytometer gives signals particle by particle.

Experiment [9] concerns the target T1, human CXCR4. The experiment can be described thus: FACS competition on formalin-fixed Namalwa cells: 10 nM biotinylated SDF-1 bound first, then displaced by 6C7; streptavidin-PE readout.
The target in experiment [10] is T4, CCR4 (human, UniProt P51679 1-360).
T4 construct: whole, on cells
T4 sequence (looked up): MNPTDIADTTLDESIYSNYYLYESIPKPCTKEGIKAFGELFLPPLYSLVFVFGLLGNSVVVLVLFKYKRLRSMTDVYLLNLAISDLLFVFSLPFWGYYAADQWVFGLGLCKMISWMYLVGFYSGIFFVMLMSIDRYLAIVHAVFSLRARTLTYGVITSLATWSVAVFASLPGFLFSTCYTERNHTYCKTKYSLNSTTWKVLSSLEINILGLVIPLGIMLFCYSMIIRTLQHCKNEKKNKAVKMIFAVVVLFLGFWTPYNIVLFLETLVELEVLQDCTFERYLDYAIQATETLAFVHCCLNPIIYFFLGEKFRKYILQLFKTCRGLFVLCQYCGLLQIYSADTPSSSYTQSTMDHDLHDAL
The experiment can be described thus: FACS on CCR4 transfected CHO cells, parental cells as control. As to the method: (§3) CXCR4 is a GPCR, with few close homologues in the family of human GPCRs. Among these are CXCR3 and CCR4. […] The samples were analyzed on a FACS Caliber cytometer.

Experiment [11] deals with T5, human CXCR3 (human, UniProt P49682 1-368).
T5 construct: whole, on cells
T5 sequence (looked up): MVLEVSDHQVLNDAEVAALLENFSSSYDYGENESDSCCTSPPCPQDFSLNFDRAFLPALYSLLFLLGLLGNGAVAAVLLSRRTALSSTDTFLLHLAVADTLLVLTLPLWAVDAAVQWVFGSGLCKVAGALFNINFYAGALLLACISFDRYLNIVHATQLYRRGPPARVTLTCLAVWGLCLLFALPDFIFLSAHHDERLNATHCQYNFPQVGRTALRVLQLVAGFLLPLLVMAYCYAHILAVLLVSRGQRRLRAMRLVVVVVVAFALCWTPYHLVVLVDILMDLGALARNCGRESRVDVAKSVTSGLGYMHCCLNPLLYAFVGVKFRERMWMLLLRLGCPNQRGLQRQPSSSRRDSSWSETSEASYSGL
The experiment can be described thus: FACS on human CXCR3 transfected HEK293 cells, parental cells as control. As to the method:
as §3

The target in experiment [12] is T2, cynomolgus monkey CXCR4. The experiment can be described thus: Kinexa-based on-cell affinity (FACS) on cynomolgus T-cell line HSC-F.
Experiment [13] addresses T1, human CXCR4. The experiment in a line: FACS binding under antigen limiting conditions on Jurkat cells, Kinexa software fit; experiment 2. Here is the method:
as §2

For experiment [14], the target named is T1, human CXCR4. The experiment in a line: cell-based or functional assay. This is another data set of the same source.

T2 sequence (Q28474 whole entry): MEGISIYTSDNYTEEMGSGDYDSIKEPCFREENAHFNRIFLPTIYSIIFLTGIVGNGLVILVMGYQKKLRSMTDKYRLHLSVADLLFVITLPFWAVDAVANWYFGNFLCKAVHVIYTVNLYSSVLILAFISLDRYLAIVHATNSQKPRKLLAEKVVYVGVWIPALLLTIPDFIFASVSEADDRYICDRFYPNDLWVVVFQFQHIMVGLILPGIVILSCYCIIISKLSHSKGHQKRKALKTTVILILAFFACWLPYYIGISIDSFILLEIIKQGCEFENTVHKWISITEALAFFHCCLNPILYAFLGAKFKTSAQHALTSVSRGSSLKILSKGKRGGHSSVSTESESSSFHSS
T3 sequence (P70658 whole entry): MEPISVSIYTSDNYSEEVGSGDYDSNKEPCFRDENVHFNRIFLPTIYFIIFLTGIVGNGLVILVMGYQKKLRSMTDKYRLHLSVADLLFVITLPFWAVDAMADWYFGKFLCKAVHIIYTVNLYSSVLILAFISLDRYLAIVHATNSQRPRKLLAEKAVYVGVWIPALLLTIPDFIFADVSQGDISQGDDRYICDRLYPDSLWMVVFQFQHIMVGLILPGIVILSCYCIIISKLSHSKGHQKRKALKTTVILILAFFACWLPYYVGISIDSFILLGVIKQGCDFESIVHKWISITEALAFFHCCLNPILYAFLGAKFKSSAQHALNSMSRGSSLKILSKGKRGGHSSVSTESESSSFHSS
T1 sequence (P61073 whole entry): as the sequence (Q28474 whole entry) above, with I24M, H35N, R38K, K146R, S176N counted along it

B1: 5C9 (antibody, V domains shown)
VH: QVQLVESGGGVVQPGRSLRLSCAASGFTFSSYGLHWVRQSPGKGLEWVAVISYDGSKKYYADSVKGRFSISRDNSKNTLYLQMNSLRAEDTAVYYCARDRPSRYSSCMDVWGQGTTVTVSS
VL: QSALTQPASVSGSPGQSITISCTGTSSDVGSNNFVSWYQQHPGKAPKLMIYEVSKRPSGVSNRFSGSKSGNTASLTISGLQAEDEADYYCCSYAGSNTLVFGGGTKLTVL
notes: Fully human monoclonal antibody from XenoMouse hybridoma (lambda light chain)
Consider B1, for which, in experiment [1], the “Jurkat chemotaxis inhibition IC50 pM” value amounted to 28200 pM and the “Jurkat chemotaxis inhibition IC50” value amounted to 4.22 µg/mL. Moreover, the “% Inhibition of SDF-1 binding” value in [2] is -1%. Moreover, in [3], the Count is 106, the FL1 was 7320 and the FL1 x count turned out to be 776000. In experiment [4], this molecule registered a Count of 233, an FL1 of 8800 and an FL1 x count of 2.05e+06. Also, in experiment [5], the Count is 72, the FL1 amounted to 4780 and the FL1 x count is 344000. Further, in experiment [6], the “% Inhibition 1 hr (Jurkat chemotaxis)” value turned out to be 74% and the “% Inhibition 24 hr (Jurkat chemotaxis)” value amounted to 44%. Also, in experiment [7], the binding result is on record as “no binding”.

B2: 6C7 (antibody, V domains shown)
VH: QVQLVESGGGVVQPGRSLRLSCAASGFTFSNYVMHWVRQAPGKGLEWVAVIWYDGSNKYYADSVKGRFTISRDNSKNTLSLQMNSLRAEDTAVYYCERGEGYYGSGSRYRGYYYGMDVWGQGTTVTVSS
VL: DIQMTQSPSSLSASVGDRVTITCRASQGIRTDLGWYQQKPGKAPKRLIYAASSLQSGVPSRFSGSGSGTEFTLTISSLQPEDFATYYCLQHNSYPRTFGQGTKVEIK
notes: Fully human monoclonal antibody from XenoMouse hybridoma; also called antibody 6C7; mAb 6C7
In [8], B2 had a Kd of 0.242 nM. Also, in experiment [9], the IC50 is 0.123 nM and the “IC50 (read off the curve)” value was about 0.1 nM. Moreover, in experiment [10], the binding result was “no binding (tested: 10 and 100 ug/ml)”. In experiment [1], the “Jurkat chemotaxis inhibition IC50 pM” value was determined as 74.7 pM and the “Jurkat chemotaxis inhibition IC50” value came to 0.0112 µg/mL. For the same molecule, in [11], the binding result was “no binding (tested: 10 and 100 ug/ml)”. The “% Inhibition of SDF-1 binding” value in experiment [2] turned out to be 88%. Besides, in [12], the Kd was determined as 0.221 nM. In experiment [3], this molecule registered a Count of 125, an FL1 of 3470 and an FL1 x count of 434000. In experiment [4], this molecule registered a Count of 199, an FL1 of 7990 and an FL1 x count of 1.59e+06. This molecule came in with a Kd in experiment [13] of 0.768 nM. In [6], the “% Inhibition 1 hr (Jurkat chemotaxis)” value is 99.6% and the “% Inhibition 24 hr (Jurkat chemotaxis)” value stood at 95%. Moreover, in [14], the “Jurkat chemotaxis inhibition IC50” value is 0.068 nM.

Usually Kd stands for the free concentration of one partner at which half of the binding sites on the other are occupied at equilibrium, for simple one-to-one binding. For orientation: IC50 means the concentration needed to halve the response being measured.

Values taken from patent US20140314784A1 (MEDLMMUNE, published 2014).
